In patent publication US20190375846A1 (ULTRAHUMAN ONE, published 2019):
One block for each binder: values may come before it.

Assays:
[1] = target: T1, human GITR-Fc (human, UniProt Q9Y5U5 26-161); experiment: ELISA of IgG1 proteins
T1 construct: Recombinant GITR-Fc; also called hGITR-Fc; hGITR; not shown: Fc part
T1 sequence (looked up): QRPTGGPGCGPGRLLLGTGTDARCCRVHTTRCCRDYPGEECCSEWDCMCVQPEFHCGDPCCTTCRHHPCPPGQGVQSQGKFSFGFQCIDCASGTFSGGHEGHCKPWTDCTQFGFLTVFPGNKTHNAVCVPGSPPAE
Description: (§1) To coat Greiner Bio-One High bind ELISA plates, target proteins were diluted to 1 μg/ml in carbonate buffer and added at 100 μl per well, at 4° C., o/n. Coated plates were washed 3× with PBS pH7.4, blocked with 1% BSA in PBS (380 μl/well) for 1 hr at RT, then washed 3× with PBS-Tween 20 (PBST). GITR antibodies (100 μl/well; diluted in PBST) were then added and then incubated 1 hr at RT. Plates were then washed 3× with PBST and goat anti-human kappa chain-HRP added (100 μl/well) at RT, for 1 hr. Plates were then washed 3× with PBST and twice with PBS before the addition of 100 μl TMB per well. Reactions were stopped by adding 100 μl 2M H₂SO₄/well and OD was read on a plate reader at 450 nm. IgG binding analysis via ELISA on negatively charged biomolecular surfaces were performed as previously described (see Mouquet et al., 2010, Nature 467: 591-595).
To examine the influence of these mutations on immunogenicity and function, five further designer mutants (A6.1 to A6.5, see Table 4 for CDR sequences) were also submitted for Epibase analysis (Table 5). […] Cyno GITR binding was greatly diminished for all of clones A6.2 to A6.5.

[2] = target: T1, human GITR-Fc; experiment: direct titration ELISA on coated human GITR-Fc, IgG1 0.001-1 µg/ml, OD 450 nm
Description: as §1
(§2) Retention of GITR-binding function in the purified IgG1 proteins was first examined by titration in direct binding ELISA against human GITR-Fc. […] Importantly, the >100-fold loss of binding function in the VH2 IgG family further illustrated that the HCDR1 could not be fully germ-lined a priori to match the native sequence of the human germline HCDR1 found in the framework used for grafting (IGHV3-7).

[3] = target: T1, human GITR-Fc; experiment: direct titration ELISA, coated human GITR-Fc, IgG1
Description: as §1, §2

[4] = target: T1, human GITR-Fc; experiment: SPR (Biacore), Fab over GITR-Fc captured on anti-human Fc, 37 C, 1:1 model
Description: (§3) For affinity estimation, anti-human IgG Fc antibody was amine coupled at pH 5 onto three flow cells (Fc 1 to Fc 3) of a Biacore CM5 chip. The level of anti-Fc antibody immobilised onto the chip was approximately 550 RU. Human and cyno GITR-Fc and irrelevant receptor-Fc proteins were then captured onto the anti-Fc antibodies (by injecting over the antibody surface until nearly/completely saturated) in order that 80-100 RU were captured. Fab monomers were then injected over the Fc proteins captured on the chip at 37° C. a flow rate of 50 μl/min for 120 seconds, followed by Biacore running buffer (HBS-EP) being flowed over the chip for 240 seconds at 50 μl/min. The chip was regenerated between cycles using 2×15 second injections of 10 mM Glycine pH 2. The concentrations of Fab samples tested were 400, 200, 100, 50, 25, 12.5, and 6.25 nM. A Biacore running buffer control (0 nM) was also included as a control.
(§4) Monomeric Fab fragments were generated and flowed in the mobile phase on human and cyno GITR-Fc coated biosensor chips, to derive 1:1 binding values.

[5] = target: T2, cynomolgus monkey GITR-Fc (cynomolgus monkey (Macaca fascicularis)); experiment: as above
T2 construct: also called cyno GITR-Fc; cGITR-Fc
Description: as §3, §4

B1: A6.1 IgG1 (antibody, V domains shown)
VH: EVQLVESGGGLVQPGGSLRLSCAASGFSLSTSGYGVGWVRQAPGKGLEWLAHIWWDDDKYYVDSVKGRFTISRDNAKNSLYLQMNSLRAEDTAVYYCARTRQYFPFAYWGQGTLVTVSS
VL: EIVLTQSPATLSLSPGERATLSCRASQSVGSNLAWYQQKPGQAPRLLIYSASNRYTGIPARFSGSGSGTDFTLTISSLEPEDFAVYYCQQYSTDPLTFGGGTKVEIK
notes: Human IgG1, designer mutant of D-A6; built as m28; also called D-A6.1; Clone A6.1
binding result [1]: binds

B2: VH3/VL3 IgG1 (antibody, V domains shown)
VH: EVQLVESGGGLVQPGGSLRLSCAASGFSLSTSGMGVGWVRQAPGKGLEWLAHIWWDDDKYYVDSVKGRFTISRDNAKNSLYLQMNSLRAEDTAVYYCARTRRYFPFAYWGQGTLVTVSS
VL: DIQMTQSPSSLSASVGDRVTITCRASQNVGTNVAWYQQKPGKAPKLLIYSASYRYSGVPSRFSGSGSGTDFTLTISSLQPEDFATYYCQQYNTDPLTFGGGTKVEIK
notes: Human IgG1; also called VH3 family
binding result [2]: binds

B3: MH-1 IgG1 (antibody, V domains shown)
VH: EVQLVESGGGLVQPGGSLRLSCAASGFSLSTSGMGMSWVRQAPGKGLEWVAHIWWDDEKYYVDSVKGRFTISRDNAKNSLYLQMNSLRAEDTAVYYCARTRQYFPFAYWGQGTLVTVSS
VL: EIVLTQSPATLSLSPGERATLSCRASQSVGSNLAWYQQKPGQAPRLLIYSASYRATGIPARFSGSGSGTDFTLTISSLEPEDFAVYYCQQYSTDPLTFGGGTKVEIK
notes: Human IgG1, designer clone; built as m28; also called Clone MH-1
binding result [3]: binds

B4: MH-3 IgG1 (antibody, V domains shown)
VH: EVQLVESGGGLVQPGGSLRLSCAASGFSLSTSGYGMSWVRQAPGKGLEWVAHIWWDDEKYYVDSVKGRFTISRDNAKNSLYLQMNSLRAEDTAVYYCARTRQYFPFAYWGQGTLVTVSS
VL: EIVLTQSPATLSLSPGERATLSCRASQNVGSNLAWYQQKPGQAPRLLIYSASYRATGIPARFSGSGSGTDFTLTISSLEPEDFAVYYCQQYSTDPLTFGGGTKVEIK
notes: Human IgG1, designer clone; built as m28; also called Clone MH-3
binding result [3]: binds

B5: MH-4 IgG1 (antibody, V domains shown)
VH: EVQLVESGGGLVQPGGSLRLSCAASGFSLSTSGYGMSWVRQAPGKGLEWVAHIWWDDEKYYVDSVKGRFTISRDNAKNSLYLQMNSLRAEDTAVYYCARTRQYFPFAYWGQGTLVTVSS
VL: EIVLTQSPATLSLSPGERATLSCRASQSVGSNVAWYQQKPGQAPRLLIYSASYRATGIPARFSGSGSGTDFTLTISSLEPEDFAVYYCQQYSTDPLTFGGGTKVEIK
notes: Human IgG1, designer clone; built as m28; also called Clone MH-4
binding result [3]: binds

B7: VH4/VL1 IgG1 (antibody, V domains shown)
VH: EVQLVQSGAEVKKPGESLKISCKGSGFSLSTSGMGVGWVRQMPGKGLEWLAHIWWDDDKYYSPSFQGQVTISADKSISTAYLQWSSLKASDTAMYYCARTRRYFPFAYWGQGTLVTVSS
VL: EIVMTQSPATLSVSPGERATLSCKASQNVGTNVAWYQQKPGQAPRLLIYSASYRYSGIPARFSGSGSGTEFTLTISSLQSEDFAVYYCQQYNTDPLTFGGGTKVEIK
notes: Human IgG1; also called VH4 family
binding result [2]: binds

B9: VH2/VL1 IgG1 (antibody, V domains shown)
VH: EVQLVESGGGLVQPGGSLRLSCAASGFTFSSYWMSWVRQAPGKGLEWLAHIWWDDDKYYVDSVKGRFTISRDNAKNSLYLQMNSLRAEDTAVYYCARTRRYFPFAYWGQGTLVTVSS
VL: EIVMTQSPATLSVSPGERATLSCKASQNVGTNVAWYQQKPGQAPRLLIYSASYRYSGIPARFSGSGSGTEFTLTISSLQSEDFAVYYCQQYNTDPLTFGGGTKVEIK
notes: Human IgG1; The dash printed in the HCDR1 of VH2 is an alignment gap; also called VH2 family
fold loss of binding function (against mVH/mVL IgG) [3]: > 100 fold

B10: VH1/VL1 Fab (Fab, V domains shown)
VH: QVTLRESGPALVKPTQTLTLTCTFSGFSLSTSGMGVGWIRQPPGKALEWLAHIWWDDDKYYNPSLKSRLTISKDTSKNQVVLTMTNMDPVDTATYYCARTRRYFPFAYWGQGTLVTVSS
VL: EIVMTQSPATLSVSPGERATLSCKASQNVGTNVAWYQQKPGQAPRLLIYSASYRYSGIPARFSGSGSGTEFTLTISSLQSEDFAVYYCQQYNTDPLTFGGGTKVEIK
notes: also called VH1/VL1 Fab fragment
Kd [4]: 0.11 µM | koff [4]: 0.0051 s⁻¹ | kon [4]: 45000 M⁻¹ s⁻¹ | Kd [5]: 0.27 µM | koff [5]: 0.0061 s⁻¹ | kon [5]: 22000 M⁻¹ s⁻¹

B12: VH2/VL2 IgG1 (antibody, V domains shown)
VH: EVQLVESGGGLVQPGGSLRLSCAASGFTFSSYWMSWVRQAPGKGLEWLAHIWWDDDKYYVDSVKGRFTISRDNAKNSLYLQMNSLRAEDTAVYYCARTRRYFPFAYWGQGTLVTVSS
VL: EIVLTQSPATLSLSPGERATLSCRASQNVGTNVAWYQQKPGQAPRLLIYSASYRYSGIPARFSGSGSGTDFTLTISSLEPEDFAVYYCQQYNTDPLTFGGGTKVEIK
notes: Human IgG1; also called VH2 family
fold loss of binding function (against mVH/mVL IgG) [3]: > 100 fold

B16: VH2/VL3 IgG1 (antibody, V domains shown)
VH: EVQLVESGGGLVQPGGSLRLSCAASGFTFSSYWMSWVRQAPGKGLEWLAHIWWDDDKYYVDSVKGRFTISRDNAKNSLYLQMNSLRAEDTAVYYCARTRRYFPFAYWGQGTLVTVSS
VL: DIQMTQSPSSLSASVGDRVTITCRASQNVGTNVAWYQQKPGKAPKLLIYSASYRYSGVPSRFSGSGSGTDFTLTISSLQPEDFATYYCQQYNTDPLTFGGGTKVEIK
notes: as for B12
fold loss of binding function (against mVH/mVL IgG) [3]: > 100 fold

Results, then the binder that gave them:

binding result [3]: binds
B6: MH-2 IgG1 (antibody, V domains shown)
VH: EVQLVESGGGLVQPGGSLRLSCAASGFSLSTSGYGVSWVRQAPGKGLEWVAHIWWDDEKYYVDSVKGRFTISRDNAKNSLYLQMNSLRAEDTAVYYCARTRQYFPFAYWGQGTLVTVSS
VL: EIVLTQSPATLSLSPGERATLSCRASQSVGSNLAWYQQKPGQAPRLLIYSASYRATGIPARFSGSGSGTDFTLTISSLEPEDFAVYYCQQYSTDPLTFGGGTKVEIK
notes: Human IgG1, designer clone; built as m28; also called Clone MH-2

binding result [2]: binds
B8: VH3/VL1 IgG1 (antibody, V domains shown)
VH: EVQLVESGGGLVQPGGSLRLSCAASGFSLSTSGMGVGWVRQAPGKGLEWLAHIWWDDDKYYVDSVKGRFTISRDNAKNSLYLQMNSLRAEDTAVYYCARTRRYFPFAYWGQGTLVTVSS
VL: EIVMTQSPATLSVSPGERATLSCKASQNVGTNVAWYQQKPGQAPRLLIYSASYRYSGIPARFSGSGSGTEFTLTISSLQSEDFAVYYCQQYNTDPLTFGGGTKVEIK
notes: as for B2

binding result [2]: binds
B11: VH4/VL3 IgG1 (antibody, V domains shown)
VH: EVQLVQSGAEVKKPGESLKISCKGSGFSLSTSGMGVGWVRQMPGKGLEWLAHIWWDDDKYYSPSFQGQVTISADKSISTAYLQWSSLKASDTAMYYCARTRRYFPFAYWGQGTLVTVSS
VL: DIQMTQSPSSLSASVGDRVTITCRASQNVGTNVAWYQQKPGKAPKLLIYSASYRYSGVPSRFSGSGSGTDFTLTISSLQPEDFATYYCQQYNTDPLTFGGGTKVEIK
notes: as for B7

binding result [2]: binds
B13: VH1/VL2 IgG1 (antibody, V domains shown)
VH: QVTLRESGPALVKPTQTLTLTCTFSGFSLSTSGMGVGWIRQPPGKALEWLAHIWWDDDKYYNPSLKSRLTISKDTSKNQVVLTMTNMDPVDTATYYCARTRRYFPFAYWGQGTLVTVSS
VL: EIVLTQSPATLSLSPGERATLSCRASQNVGTNVAWYQQKPGQAPRLLIYSASYRYSGIPARFSGSGSGTDFTLTISSLEPEDFAVYYCQQYNTDPLTFGGGTKVEIK
notes: Human IgG1; also called VH1 family

binding result [2]: binds
B14: VH4/VL2 IgG1 (antibody, V domains shown)
VH: EVQLVQSGAEVKKPGESLKISCKGSGFSLSTSGMGVGWVRQMPGKGLEWLAHIWWDDDKYYSPSFQGQVTISADKSISTAYLQWSSLKASDTAMYYCARTRRYFPFAYWGQGTLVTVSS
VL: EIVLTQSPATLSLSPGERATLSCRASQNVGTNVAWYQQKPGQAPRLLIYSASYRYSGIPARFSGSGSGTDFTLTISSLEPEDFAVYYCQQYNTDPLTFGGGTKVEIK
notes: as for B7

binding result [2]: binds
B15: VH1/VL3 IgG1 (antibody, V domains shown)
VH: QVTLRESGPALVKPTQTLTLTCTFSGFSLSTSGMGVGWIRQPPGKALEWLAHIWWDDDKYYNPSLKSRLTISKDTSKNQVVLTMTNMDPVDTATYYCARTRRYFPFAYWGQGTLVTVSS
VL: DIQMTQSPSSLSASVGDRVTITCRASQNVGTNVAWYQQKPGKAPKLLIYSASYRYSGVPSRFSGSGSGTDFTLTISSLQPEDFATYYCQQYNTDPLTFGGGTKVEIK
notes: as for B13
